Each block holds one binder with its values, some of them ahead of it.
Assays:
[1] = biological target: T1, C3 convertase of the alternative pathway (C3bBb) formed on C3b-coated wells (UniProt P01024 749-1663; P01024 23-667; P00751 260-764, limits assumed); assay: cell-based or functional assay
[2] = biological target: T1, C3 convertase of the alternative …; assay: cell-based or functional assay; remark: listed apart in the source

T1 sequence (P01024 749-1663 limits assumed, chain 1 of 3): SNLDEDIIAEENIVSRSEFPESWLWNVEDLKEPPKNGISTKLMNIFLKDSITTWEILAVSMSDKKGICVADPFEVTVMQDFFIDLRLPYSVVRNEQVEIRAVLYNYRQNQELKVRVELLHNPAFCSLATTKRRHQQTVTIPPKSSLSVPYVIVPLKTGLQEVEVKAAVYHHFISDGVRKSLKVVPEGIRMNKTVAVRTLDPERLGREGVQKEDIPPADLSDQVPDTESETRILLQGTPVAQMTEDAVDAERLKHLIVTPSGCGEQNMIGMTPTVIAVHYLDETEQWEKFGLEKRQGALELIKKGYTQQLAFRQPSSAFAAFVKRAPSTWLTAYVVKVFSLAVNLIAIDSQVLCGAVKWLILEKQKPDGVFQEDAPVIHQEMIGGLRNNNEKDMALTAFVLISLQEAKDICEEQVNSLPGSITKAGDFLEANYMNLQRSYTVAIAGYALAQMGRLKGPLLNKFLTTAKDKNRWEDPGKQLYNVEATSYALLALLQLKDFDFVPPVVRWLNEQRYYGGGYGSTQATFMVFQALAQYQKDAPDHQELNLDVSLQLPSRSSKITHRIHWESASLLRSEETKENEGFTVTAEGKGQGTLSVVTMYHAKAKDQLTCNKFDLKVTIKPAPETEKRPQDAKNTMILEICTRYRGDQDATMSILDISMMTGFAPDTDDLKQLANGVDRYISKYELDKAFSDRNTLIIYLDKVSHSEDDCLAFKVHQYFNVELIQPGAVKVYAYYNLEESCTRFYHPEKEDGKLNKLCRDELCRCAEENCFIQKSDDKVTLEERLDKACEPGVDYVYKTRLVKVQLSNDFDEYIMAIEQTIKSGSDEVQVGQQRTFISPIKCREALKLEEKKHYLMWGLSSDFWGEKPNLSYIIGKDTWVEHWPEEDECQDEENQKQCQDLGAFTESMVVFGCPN
T1 sequence (P01024 23-667 limits assumed, chain 2 of 3): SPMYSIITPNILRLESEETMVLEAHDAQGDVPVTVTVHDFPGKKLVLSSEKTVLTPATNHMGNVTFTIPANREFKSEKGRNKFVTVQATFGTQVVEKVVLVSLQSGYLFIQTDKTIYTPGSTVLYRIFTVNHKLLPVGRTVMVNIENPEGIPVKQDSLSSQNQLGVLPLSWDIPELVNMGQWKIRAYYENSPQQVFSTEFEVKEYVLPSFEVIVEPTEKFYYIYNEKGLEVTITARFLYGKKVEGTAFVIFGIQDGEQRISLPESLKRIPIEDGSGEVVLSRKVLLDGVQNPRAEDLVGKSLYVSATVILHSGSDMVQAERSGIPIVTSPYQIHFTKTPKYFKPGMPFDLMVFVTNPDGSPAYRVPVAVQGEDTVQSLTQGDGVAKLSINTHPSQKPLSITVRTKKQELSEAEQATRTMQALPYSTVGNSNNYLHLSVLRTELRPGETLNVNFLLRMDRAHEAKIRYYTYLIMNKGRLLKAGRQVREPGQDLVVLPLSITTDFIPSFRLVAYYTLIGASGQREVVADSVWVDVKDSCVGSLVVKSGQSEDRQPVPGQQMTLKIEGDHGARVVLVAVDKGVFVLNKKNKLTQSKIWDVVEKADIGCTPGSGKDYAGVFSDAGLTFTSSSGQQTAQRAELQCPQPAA
T1 sequence (P00751 260-764 limits assumed, chain 3 of 3): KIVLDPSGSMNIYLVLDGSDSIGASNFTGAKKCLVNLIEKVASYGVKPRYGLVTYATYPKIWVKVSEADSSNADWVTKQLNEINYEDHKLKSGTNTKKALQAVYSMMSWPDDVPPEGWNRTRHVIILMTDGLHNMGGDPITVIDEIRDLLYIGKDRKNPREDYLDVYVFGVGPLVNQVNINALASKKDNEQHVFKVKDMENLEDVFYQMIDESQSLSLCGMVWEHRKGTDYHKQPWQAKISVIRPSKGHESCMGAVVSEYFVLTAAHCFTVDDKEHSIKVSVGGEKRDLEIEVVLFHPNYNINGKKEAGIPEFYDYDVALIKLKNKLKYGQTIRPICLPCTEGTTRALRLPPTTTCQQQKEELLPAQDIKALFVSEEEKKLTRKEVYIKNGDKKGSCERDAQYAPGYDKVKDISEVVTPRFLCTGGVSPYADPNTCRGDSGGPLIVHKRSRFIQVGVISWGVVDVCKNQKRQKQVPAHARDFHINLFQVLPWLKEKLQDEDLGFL

IC50, acceleration of the dissociation of C3 convertase (culture supernatant HEK MD2-H402) [1]: 0.052 µg/mL
B1: recombinant human factor H, H402 variant, produced in the HEK 293F cell line (other)
chain: EDCNELPPRRNTEILTGSWSDQTYPEGTQAIYKCRPGYRSLGNVIMVCRKGEWVALNPLRKCQKRPCGHPGDTPFGTFTLTGGNVFEYGVKAVYTCNEGYQLLGEINYRECDTDGWTNDIPICEVVKCLPVTAPENGKIVSSAMEPDREYHFGQAVRFVCNSGYKIEGDEEMHCSDDGFWSKEKPKCVEISCKSPDVINGSPISQKIIYKENERFQYKCNMGYEYSERGDAVCTESGWRPLPSCEEKSCDNPYIPNGDYSPLRIKHRTGDEITYQCRNGFYPATRGNTAKCTSTGWIPAPRCTLKPCDYPDIKHGGLYHENMRRPYFPVAVGKYYSYYCDEHFETPSGSYWDHIHCTQDGWSPAVPCLRKCYFPYLENGYNQNHGRKFVQGKSIDVACHPGYALPKAQTTVTCMENGWSPTPRCIRVKTCSKSSIDIENGFISESQYTYALKEKAKYQCKLGYVTADGETSGSITCGKDGWSAQPTCIKSCDIPVFMNARTKNDFTWFKLNDTLDYECHDGYESNTGSTTGSIVCGYNGWSDLPICYERECELPKIDVHLVPDRKKDQYKVGEVLKFSCKPGFTIVGPNSVQCYHFGLSPDLPICKEQVQSCGPPPELLNGNVKEKTKEEYGHSEVVEYYCNPRFLMKGPNKIQCVDGEWTTLPVCIVEESTCGDIPELEHGWAQLSSPPYYYGDSVEFNCSESFTMIGHRSITCIHGVWTQLPQCVAIDKLKKCKSSNLIILEEHLKNKKEFDHNSNIRYRCRGKEGWIHTVCINGRWDPEVNCSMAQIQLCPPPPQIPNSHNMTTTLNYRDGEKVSVLCQENYLIQEGEEITCKDGRWQSIPLCVEKIPCSQPPQIEHGTINSSRSSQESYAHGTKLSYTCEGGFRISEENETTCYMGKWSSPPQCEGLPCKSPPEISHGVVAHMSDSYQYGEEVTYKCFEGFGIDGPAIAKCLGEKWSHPPSCIKTDCLSLPSFENAIPMGEKKDVYKAGEQVTYTCATYYKMDGASNVTCINSRWTGRPTCRDTSCVNPPTVQNAYIVSRQMSKYPSGERVRYQCRSPYEMFGDEEVMCLNGNWTEPPQCKDSTGKCGPPPPIDNGDITSFPLSVYAPASSVEYQCQNLYQLEGNKRITCRNGQWSEPPKCLHPCVISREIMENYNIALRWTAKQKLYSRTGESVEFVCKRGYRLSSRSHTLRTTCWDGKLEYPTCAKR

IC50, acceleration of the dissociation of C3 convertase (culture supernatant PERC6 MD2-Y402) [1]: 0.0487 µg/mL
IC50, acceleration of the dissociation of C3 convertase (culture supernatant PERC6 MD3-Y402) [1]: 0.0559 µg/mL
IC50, acceleration of the dissociation of C3 convertase (sample: Purified FH PER.C6) [2]: 0.0451 µg/mL
B2: recombinant human factor H, Y402 variant, produced in the PER.C6 cell line (other)
chain: EDCNELPPRRNTEILTGSWSDQTYPEGTQAIYKCRPGYRSLGNVIMVCRKGEWVALNPLRKCQKRPCGHPGDTPFGTFTLTGGNVFEYGVKAVYTCNEGYQLLGEINYRECDTDGWTNDIPICEVVKCLPVTAPENGKIVSSAMEPDREYHFGQAVRFVCNSGYKIEGDEEMHCSDDGFWSKEKPKCVEISCKSPDVINGSPISQKIIYKENERFQYKCNMGYEYSERGDAVCTESGWRPLPSCEEKSCDNPYIPNGDYSPLRIKHRTGDEITYQCRNGFYPATRGNTAKCTSTGWIPAPRCTLKPCDYPDIKHGGLYHENMRRPYFPVAVGKYYSYYCDEHFETPSGSYWDHIHCTQDGWSPAVPCLRKCYFPYLENGYNQNYGRKFVQGKSIDVACHPGYALPKAQTTVTCMENGWSPTPRCIRVKTCSKSSIDIENGFISESQYTYALKEKAKYQCKLGYVTADGETSGSITCGKDGWSAQPTCIKSCDIPVFMNARTKNDFTWFKLNDTLDYECHDGYESNTGSTTGSIVCGYNGWSDLPICYERECELPKIDVHLVPDRKKDQYKVGEVLKFSCKPGFTIVGPNSVQCYHFGLSPDLPICKEQVQSCGPPPELLNGNVKEKTKEEYGHSEVVEYYCNPRFLMKGPNKIQCVDGEWTTLPVCIVEESTCGDIPELEHGWAQLSSPPYYYGDSVEFNCSESFTMIGHRSITCIHGVWTQLPQCVAIDKLKKCKSSNLIILEEHLKNKKEFDHNSNIRYRCRGKEGWIHTVCINGRWDPEVNCSMAQIQLCPPPPQIPNSHNMTTTLNYRDGEKVSVLCQENYLIQEGEEITCKDGRWQSIPLCVEKIPCSQPPQIEHGTINSSRSSQESYAHGTKLSYTCEGGFRISEENETTCYMGKWSSPPQCEGLPCKSPPEISHGVVAHMSDSYQYGEEVTYKCFEGFGIDGPAIAKCLGEKWSHPPSCIKTDCLSLPSFENAIPMGEKKDVYKAGEQVTYTCATYYKMDGASNVTCINSRWTGRPTCRDTSCVNPPTVQNAYIVSRQMSKYPSGERVRYQCRSPYEMFGDEEVMCLNGNWTEPPQCKDSTGKCGPPPPIDNGDITSFPLSVYAPASSVEYQCQNLYQLEGNKRITCRNGQWSEPPKCLHPCVISREIMENYNIALRWTAKQKLYSRTGESVEFVCKRGYRLSSRSHTLRTTCWDGKLEYPTCAKR

IC50, acceleration of the dissociation of C3 convertase (culture supernatant PERC6 MD2-H402) [1]: 0.0546 µg/mL
B3: recombinant human factor H, H402 variant, produced in the PER.C6 cell line (other)
chain: EDCNELPPRRNTEILTGSWSDQTYPEGTQAIYKCRPGYRSLGNVIMVCRKGEWVALNPLRKCQKRPCGHPGDTPFGTFTLTGGNVFEYGVKAVYTCNEGYQLLGEINYRECDTDGWTNDIPICEVVKCLPVTAPENGKIVSSAMEPDREYHFGQAVRFVCNSGYKIEGDEEMHCSDDGFWSKEKPKCVEISCKSPDVINGSPISQKIIYKENERFQYKCNMGYEYSERGDAVCTESGWRPLPSCEEKSCDNPYIPNGDYSPLRIKHRTGDEITYQCRNGFYPATRGNTAKCTSTGWIPAPRCTLKPCDYPDIKHGGLYHENMRRPYFPVAVGKYYSYYCDEHFETPSGSYWDHIHCTQDGWSPAVPCLRKCYFPYLENGYNQNHGRKFVQGKSIDVACHPGYALPKAQTTVTCMENGWSPTPRCIRVKTCSKSSIDIENGFISESQYTYALKEKAKYQCKLGYVTADGETSGSITCGKDGWSAQPTCIKSCDIPVFMNARTKNDFTWFKLNDTLDYECHDGYESNTGSTTGSIVCGYNGWSDLPICYERECELPKIDVHLVPDRKKDQYKVGEVLKFSCKPGFTIVGPNSVQCYHFGLSPDLPICKEQVQSCGPPPELLNGNVKEKTKEEYGHSEVVEYYCNPRFLMKGPNKIQCVDGEWTTLPVCIVEESTCGDIPELEHGWAQLSSPPYYYGDSVEFNCSESFTMIGHRSITCIHGVWTQLPQCVAIDKLKKCKSSNLIILEEHLKNKKEFDHNSNIRYRCRGKEGWIHTVCINGRWDPEVNCSMAQIQLCPPPPQIPNSHNMTTTLNYRDGEKVSVLCQENYLIQEGEEITCKDGRWQSIPLCVEKIPCSQPPQIEHGTINSSRSSQESYAHGTKLSYTCEGGFRISEENETTCYMGKWSSPPQCEGLPCKSPPEISHGVVAHMSDSYQYGEEVTYKCFEGFGIDGPAIAKCLGEKWSHPPSCIKTDCLSLPSFENAIPMGEKKDVYKAGEQVTYTCATYYKMDGASNVTCINSRWTGRPTCRDTSCVNPPTVQNAYIVSRQMSKYPSGERVRYQCRSPYEMFGDEEVMCLNGNWTEPPQCKDSTGKCGPPPPIDNGDITSFPLSVYAPASSVEYQCQNLYQLEGNKRITCRNGQWSEPPKCLHPCVISREIMENYNIALRWTAKQKLYSRTGESVEFVCKRGYRLSSRSHTLRTTCWDGKLEYPTCAKR

IC50, acceleration of the dissociation of C3 convertase (culture supernatant HEK MD1-Y402) [1]: 0.0538 µg/mL
IC50, acceleration of the dissociation of C3 convertase (culture supernatant HEK MD2-Y402) [1]: 0.0507 µg/mL
IC50, acceleration of the dissociation of C3 convertase (culture supernatant HEK MD3-Y402) [1]: 0.0528 µg/mL
IC50, acceleration of the dissociation of C3 convertase (sample: Purified FH HEK) [2]: 0.0506 µg/mL
B4: recombinant human factor H, Y402 variant, produced in the HEK 293F cell line (other)
chain: EDCNELPPRRNTEILTGSWSDQTYPEGTQAIYKCRPGYRSLGNVIMVCRKGEWVALNPLRKCQKRPCGHPGDTPFGTFTLTGGNVFEYGVKAVYTCNEGYQLLGEINYRECDTDGWTNDIPICEVVKCLPVTAPENGKIVSSAMEPDREYHFGQAVRFVCNSGYKIEGDEEMHCSDDGFWSKEKPKCVEISCKSPDVINGSPISQKIIYKENERFQYKCNMGYEYSERGDAVCTESGWRPLPSCEEKSCDNPYIPNGDYSPLRIKHRTGDEITYQCRNGFYPATRGNTAKCTSTGWIPAPRCTLKPCDYPDIKHGGLYHENMRRPYFPVAVGKYYSYYCDEHFETPSGSYWDHIHCTQDGWSPAVPCLRKCYFPYLENGYNQNYGRKFVQGKSIDVACHPGYALPKAQTTVTCMENGWSPTPRCIRVKTCSKSSIDIENGFISESQYTYALKEKAKYQCKLGYVTADGETSGSITCGKDGWSAQPTCIKSCDIPVFMNARTKNDFTWFKLNDTLDYECHDGYESNTGSTTGSIVCGYNGWSDLPICYERECELPKIDVHLVPDRKKDQYKVGEVLKFSCKPGFTIVGPNSVQCYHFGLSPDLPICKEQVQSCGPPPELLNGNVKEKTKEEYGHSEVVEYYCNPRFLMKGPNKIQCVDGEWTTLPVCIVEESTCGDIPELEHGWAQLSSPPYYYGDSVEFNCSESFTMIGHRSITCIHGVWTQLPQCVAIDKLKKCKSSNLIILEEHLKNKKEFDHNSNIRYRCRGKEGWIHTVCINGRWDPEVNCSMAQIQLCPPPPQIPNSHNMTTTLNYRDGEKVSVLCQENYLIQEGEEITCKDGRWQSIPLCVEKIPCSQPPQIEHGTINSSRSSQESYAHGTKLSYTCEGGFRISEENETTCYMGKWSSPPQCEGLPCKSPPEISHGVVAHMSDSYQYGEEVTYKCFEGFGIDGPAIAKCLGEKWSHPPSCIKTDCLSLPSFENAIPMGEKKDVYKAGEQVTYTCATYYKMDGASNVTCINSRWTGRPTCRDTSCVNPPTVQNAYIVSRQMSKYPSGERVRYQCRSPYEMFGDEEVMCLNGNWTEPPQCKDSTGKCGPPPPIDNGDITSFPLSVYAPASSVEYQCQNLYQLEGNKRITCRNGQWSEPPKCLHPCVISREIMENYNIALRWTAKQKLYSRTGESVEFVCKRGYRLSSRSHTLRTTCWDGKLEYPTCAKR
